Reference: paper PMC2778870, “The Crystal Structures of Yeast Get3 Suggest a Mechanism for Tail-Anchored Protein Membrane Insertion” (PLoS ONE, 2009)

Assays:
[1] = biological target: T1, D. hansenii Get3 (Debaryomyces hansenii, UniProt Q6BSM0); assay: X-ray crystallography, […] A, co-crystallization; settings: 2 mM ADP, 1 mM MgCl2, 5 mM KCl, 0.2 M ammonium mono-basic phosphate, 20% glycerol; nucleotide-binding domain, closed dimer
T1 construct: recombinant, expressed and purified; homo-dimer; finger domain not visible in electron density
T1 sequence (Q6BSM0 1-348): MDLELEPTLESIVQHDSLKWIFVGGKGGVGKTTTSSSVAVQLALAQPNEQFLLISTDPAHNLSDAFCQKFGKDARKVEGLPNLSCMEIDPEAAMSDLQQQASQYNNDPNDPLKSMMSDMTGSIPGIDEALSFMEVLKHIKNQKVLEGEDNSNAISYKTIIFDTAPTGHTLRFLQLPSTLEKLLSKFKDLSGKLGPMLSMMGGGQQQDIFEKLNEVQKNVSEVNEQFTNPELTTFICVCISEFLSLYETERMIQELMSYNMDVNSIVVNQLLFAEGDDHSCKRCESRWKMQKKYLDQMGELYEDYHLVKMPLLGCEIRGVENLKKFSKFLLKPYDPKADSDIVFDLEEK

[2] = biological target: the molecule itself; assay: crystal structure; S. cerevisiae Get3, nucleotide-free, 2.3 Å; hanging drop, 100 mM MES pH 6.0, PEG 3350 15%, 0.2 M ammonium sulfate; two monomers in the asymmetric unit
[3] = biological target: the molecule itself; assay: crystal structure; D. hansenii Get3 with ADP, 1.8 Å; hanging drop, 0.2 M ammonium mono-basic phosphate, 20% glycerol, 1 mM MgCl2, 5 mM KCl, 2 mM ADP

With `Nc1ncnc2c1ncn2[C@@H]1O[C@H](COP(=O)(O)OP(=O)(O)O)[C@@H](O)[C@H]1O` [ADP] the “X-ray crystallography, 1.8 A, co-crystallization” value [1] was “The bound ADP molecule can be clearly identified in the Get3 nucleotide-binding domain (NBD)”.

B1: S. cerevisiae full-length Get3 (enzyme, UniProt Q12154 1-354, looked up)
chain: MDLTVEPNLHSLITSTTHKWIFVGGKGGVGKTTSSCSIAIQMALSQPNKQFLLISTDPAHNLSDAFGEKFGKDARKVTGMNNLSCMEIDPSAALKDMNDMAVSRANNNGSDGQGDDLGSLLQGGALADLTGSIPGIDEALSFMEVMKHIKRQEQGEGETFDTVIFDTAPTGHTLRFLQLPNTLSKLLEKFGEITNKLGPMLNSFMGAGNVDISGKLNELKANVETIRQQFTDPDLTTFVCVCISEFLSLYETERLIQELISYDMDVNSIIVNQLLFAENDQEHNCKRCQARWKMQKKYLDQIDELYEDFHVVKMPLCAGEIRGLNNLTKFSQFLNKEYNPITDGKVIYELEDKE
notes: Get3 (Arr4) ATPase, S. cerevisiae, full length; in the crystal residues 191-210 (molecule A) and 93-116 (molecule B) are not seen; Se-Met protein was used for phasing only; One Zn ion is held between the two monomers; also called ScGet3; Arr4; source: E. coli, purified (Ni-chelating column, gel-filtration column)
With B1 the “stoichiometry N” value [2] was 2.

B2: D. hansenii Get3 (enzyme)
chain: MDLELEPTLESIVQHDSLKWIFVGGKGGVGKTTTSSSVAVQLALAQPNEQFLLISTDPAHNLSDAFCQKFGKDARKVEGLPNLSCMEIDPEAAMSDLQQQASQYNNDPNDPLKSMMSDMTGSIPGIDEALSFMEVLKHIKNQKVLEGEDNSNAISYKTIIFDTAPTGHTLRFLQLPSTLEKLLSKFKDLSGKLGPMLSMMGGGQQQDIFEKLNEVQKNVSEVNEQFTNPELTTFICVCISEFLSLYETERMIQELMSYNMDVNSIVVNQLLFAEGDDHSCKRCESRWKMQKKYLDQMGELYEDYHLVKMPLLGCEIRGVENLKKFSKFLLKPYDPKADSDIVFDLEEK
notes: Get3 ATPase of the yeast D. hansenii (Debaryomyces hansenii); finger domain not seen in the electron density; Crystallised with ADP and Mg; also called DhGet3; source: expressed and purified
In the case of B2, the “stoichiometry N” value [3] is reported as 2.
